This is an account of results in the RNAGym collection of RNA variant scans (doi:10.1073/pnas.2313332121).

B1: TPR t1 (parent)
chain: GACCAAUCUGCCCUCAGAGCUCGAGAACAUCUUCGGAUGCAGAGGAGGCAGGCUUCGGUGGCGCGAUAGCGCCAACGUCCUCAACCUCCAAUGCAUCCCACCACAUGAUGAUGCCUGAAGAGCCUUGGUUUUUUG

The variants in this data set derive from B1. Briefly: polymerase ribozyme fitness, log enrichment relative to wild type (log ratio); higher = more active; in vitro selection for triplet polymerase activity. The gist of the method:
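To select mutant libraries of each subunit of a heterodimeric triplet polymerase ribozyme, built by PCR and transcribed, each was annealed with a biotinylated primer, partner subunit and triplets, then incubated frozen at −7 °C. Extended constructs were gel-excised, captured on streptavidin beads and amplified by RT-PCR, in one round carried out in triplicate. Illumina sequencing of input and output libraries kept genotypes with ≥10 input reads and ≥1 read per output. Fitness is the base-2 logarithm of genotype enrichment relative to wild-type enrichment, from inverse-variance-weighted replicate averages.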
For the variant C11A A111U, the “polymerase ribozyme fitness (log ratio)” value is -4.43. For C8G G113U, the “polymerase ribozyme fitness (log ratio)” value was -1.24.

Consider G10U G77U U78G C114A, for which the “polymerase ribozyme fitness (log ratio)” value was -2.65. The same measure for C34A C98U G122U: -2.46.

In the case of C12G G93A, the “polymerase ribozyme fitness (log ratio)” value is -0.233. With A46C C56A C73A A91U C97U, the “polymerase ribozyme fitness (log ratio)” value is -4.49. For C20A U32G G35C G93A G113A U125A the value was -6.57; for C34A G58A, -2.81. Regarding G36U C72A C85A U92A U112A U129A, the “polymerase ribozyme fitness (log ratio)” value is -5.86. Regarding G42A U54C U132A, the “polymerase ribozyme fitness (log ratio)” value is -1.62. The same measure for G10A C13U C64A C70A G113A U125C: -6.12; for G63C U78A: -0.719. On to A5G G60C, for which the “polymerase ribozyme fitness (log ratio)” value worked out at 0.0339.

As for U55C C85A, the “polymerase ribozyme fitness (log ratio)” value is -2.73. For the variant C72U C89G G113C, the “polymerase ribozyme fitness (log ratio)” value was -3.26. Consider A16U G48C G120A, for which the “polymerase ribozyme fitness (log ratio)” value is -1.64. For U81G C88U the value was -4.05.

In the case of C31A C88G, the “polymerase ribozyme fitness (log ratio)” value is -4.98. With C12U G52A G117C, the “polymerase ribozyme fitness (log ratio)” value is -0.882. In the case of C28U C53U U92C U106A U133A, the “polymerase ribozyme fitness (log ratio)” value was -3.09.

On to G47A C62G C72U, for which the “polymerase ribozyme fitness (log ratio)” value was -4.13. For C15A G60C U116C the value was -3.39; for C13G C15U G58C, -3.58. For the variant G47U C101U C114U A118U, the “polymerase ribozyme fitness (log ratio)” value was -5.66. For G69U C79U C80U U116C, the “polymerase ribozyme fitness (log ratio)” value is -0.478.

On to U21G G36C C72G, for which the “polymerase ribozyme fitness (log ratio)” value is -2.78. Regarding U106C U109A A121U, the “polymerase ribozyme fitness (log ratio)” value was -4.69. Regarding A16G G44U G117A, the “polymerase ribozyme fitness (log ratio)” value is -3.84.

C40U C70A: the “polymerase ribozyme fitness (log ratio)” value is -1.93. Take C8A G47A C80A U112A: the “polymerase ribozyme fitness (log ratio)” value is -5.77. G42U G93A: the “polymerase ribozyme fitness (log ratio)” value is -2.14. As to C12U C79G, the “polymerase ribozyme fitness (log ratio)” value is -1.07. Take C15G C34A C70G A121C: the “polymerase ribozyme fitness (log ratio)” value was -6.55. The same measure for C80U G117A U133G: -1.17; for U32A U59C: -3.8; for A29G U116G: -2.77. The same measure for G10U U21G C70A: -5.22; for U38G G60U: -0.261; for G10A C13U C86G: -0.113.

In the case of C13U C73G C82A U87C C101A G110C G127A, the “polymerase ribozyme fitness (log ratio)” value is -6.6. For G69C U126A the value was -3.12; for A43U A121U, 1.26.

On to A6C C40A C53G C99U U109A U112G, for which the “polymerase ribozyme fitness (log ratio)” value is -5.56. Take U59G U109G G120U: the “polymerase ribozyme fitness (log ratio)” value was -4.53. As to U21C C64A C99G U112G, the “polymerase ribozyme fitness (log ratio)” value was -8.45. Regarding A84C C85U U87A C89G C124A, the “polymerase ribozyme fitness (log ratio)” value is -5.8. Turning to C124A U130A, the “polymerase ribozyme fitness (log ratio)” value turned out to be 1.09.

Consider G51C C56U G110A, for which the “polymerase ribozyme fitness (log ratio)” value was -5.23. The same measure for G42U G58C G63A C82G U87C: -5.43.

With C3G C72A, the “polymerase ribozyme fitness (log ratio)” value is -1.64. For C3G C72U the value was -2.37; for C13U A41U U126C, -2.14; for G47U C56G A118U G122A, -2.71. On to G52A C62A C123A, for which the “polymerase ribozyme fitness (log ratio)” value is -1.42. A43C U78C C88U G93A: the “polymerase ribozyme fitness (log ratio)” value is -2.62. The same measure for G71U A91G G93U: -2.17; for A41U A46U: -2.26. In the case of C8A C79A, the “polymerase ribozyme fitness (log ratio)” value was -0.182. The same measure for C34U A50C C70G C79G C89A C102G C124U: -6.39; for C8U A37C C53U: 0.264.

Turning to A27U C53A C56A U131G, the “polymerase ribozyme fitness (log ratio)” value was -2.89.

With A24G G58C A118U, the “polymerase ribozyme fitness (log ratio)” value is -2.06. As to G60A A90U, the “polymerase ribozyme fitness (log ratio)” value is -1.06.

Regarding C4A G61A G127A, the “polymerase ribozyme fitness (log ratio)” value is -2.92. Regarding G45A C89U U133A, the “polymerase ribozyme fitness (log ratio)” value was -1.52. The same measure for G58C C98G: -5.66. For C4U C11A, the “polymerase ribozyme fitness (log ratio)” value is -1.89. On to C11G C13G A111C A121G, for which the “polymerase ribozyme fitness (log ratio)” value is 0.62. As for G42U C72G G128C, the “polymerase ribozyme fitness (log ratio)” value is -4.55.

In the case of C13A G36C, the “polymerase ribozyme fitness (log ratio)” value was -1.87. For C11A G52C C56A, the “polymerase ribozyme fitness (log ratio)” value is -2.98. For A26U C101A C114A C123G the value was -6.37; for C28U C123G, -0.0468.

For G39U C85G, the “polymerase ribozyme fitness (log ratio)” value is -2.87. In the case of G71U U81C G93A G120A, the “polymerase ribozyme fitness (log ratio)” value is -0.964. Consider C12G C28G A37U G110U, for which the “polymerase ribozyme fitness (log ratio)” value is 0.364.

With G52U A95G, the “polymerase ribozyme fitness (log ratio)” value was -0.694. As to C15U G52A U59A A118U, the “polymerase ribozyme fitness (log ratio)” value was -2.24. With A16C C56U A84C C85U A100C, the “polymerase ribozyme fitness (log ratio)” value is -4.89.

With C4U C70U, the “polymerase ribozyme fitness (log ratio)” value was -0.878.

Consider G93A U112A, for which the “polymerase ribozyme fitness (log ratio)” value came to 0.918.

As to G57C C89G, the “polymerase ribozyme fitness (log ratio)” value was -0.917.

Turning to C3A G60A, the “polymerase ribozyme fitness (log ratio)” value is -1.52. The same measure for U54C G61A: -0.24.
